# Test results taken from the nanobody polyreactivity screen of Harvey et al. (2022).
# Assay: yeast display, Sf9 membrane polyspecificity reagent, FACS + sequencing; frameworks hold sequencing errors
# In short: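 Using colony PCR, genes from sorted yeast display clones were amplified, then sequenced on MiSeq at 2 × 250 and filtered by CDR length. The clones had been stained with 10% biotinylated, detergent-solubilized Sf9 membrane reagent for 1 hour at 4 °C and sorted by FACS into low and high (top ~1%) gates on anti-HA and streptavidin fluorescence. Polyreactivity labels come from the gate of origin.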
row,Sequence,polyreactivity (PSR sort gate)
1,QVQLVESGGGLVQAGGSLRLSCAASGSTFYPNAMGWYRQAPGKERELVAVITRSGGSTYYADSVKGRFTISRDNAKNTVYLQMNSLKPEDTAVYYCNAAYRTAYYGPRYDYWGQGTQVTVSS,high polyreactivity
2,QVQLVESGGGLVQAGGSLRLSCAASGSIFPTNAMGWYRQAPGKERELVAAITGNGGRTYYADSVKGRFTISRDNAKNTVYLQMNSLKPEDTAVYYCAALTYASNRYGYWGQGTQVTVSS,high polyreactivity
3,QVQLVESGGGLVQAGGSLRLSCAASGNTLQYYAMGWYRQAPGKERELVAAITTGGSTNYADSVKARFTISRDNAKNTGYLQMNSLKPEDTAVYYCAARGGVSKRISDYWGQGTQVTVSS,low polyreactivity
4,QVQLVESGGGLVQAGGSLRLSCAASAFILQRNAMGWYRQAHGKERELVAAISSRGGSTYYADSVKGRFTISRDNAKNTVYLQMNSLKPEDTAVYYCNRRSRAHGYGSQYDYWGQGTQVTVSS,low polyreactivity
5,QVQLVESVGGLVQAGGSLRLSCAASGFTLFFYAMGWYRQAPGKERELVARITSRAGRTYYADSVKGRFTISRDNAKNTVYLQMNSLKPEDNAVFYCNTRDFSGYVHALSLYDYWGQGTQVTVSS,high polyreactivity
6,QVQLVESGGGLVQAGGSLRLSCAASGSTFTTYPMGWYRQAPGKERELVAAISTNGGRTFYADSVKGRFTISGDNAKKTVYLQMNSLKPEDTAVYYCAAEYGLYAPGYYYWGQGTQVTVSS,low polyreactivity
7,QVQLVESGGGLVQAGGSLRLSCAASGRTFTGNAMGWYRQATGKERELVAAINSGGGRTFYADSVKGRFTISRDNAKNTVYLQMTSLKPEDTAVYYCNAVKYRSYYWGQGTQVTVSS,high polyreactivity
8,QVQLVESGGGLVQSGGSLRLSCAASGITFDHYAMGWYRQAPGKERELVAAISVSGGRTYYADSVKGRFTISRDNAKNTVYLQMNSLKPEDTAVYYCAKVSQVRGFYYWGQGTQVTVSS,high polyreactivity
9,QVQVVETGGGLVQAGGSLRLSCAPSGITFVTYAMGWYRQAPGKERELVAAISRSGGRTYYADSVNVRFTISRDNAKNTVYLQMNSLKPEDTAVYYCAAERKNKYDYWGQGTQVTVSS,high polyreactivity
10,QVQLVESGGGLVQAGGSIRLSCAASGSTFRGYSMGWYRQAPGKERELVAAISSRGARTHYADSVKGRFTISRDNSKNTVYLQMNCLKPEDTAVYDCAKVWVRSGRRKMDYWGQGTQVTVSS,low polyreactivity
11,QVQLVESGGGLVQAGGSLRLSCAASGSIFGGNAMGWYRQAPGKERELVAAITSRGGSTYYADSVKGRFTISRDNAKNTVYLQMNSLKPEDTAVYYCNALSSGVYLYDYWGQGTQVTVSS,high polyreactivity
12,QVQLVESGGGLVQAGGSLRLSCAASGFTIRSYVMGWYRQAPGKEREFVAAISYRGGGTNYADSVKGRFTISRDNAKNTVYLQMNSLKPEDTAVYYCNALVYDQYGYYHYYLRNGGYYWGQGTQVTVSS,high polyreactivity
13,QVQLVESGGGLVQAGGSLRLTCAASGRTLRYNAMGWYRPAPVKERELVAAITSTGSTNYADSVKGRFTISRDNAKLTVYLHMNSLTAEDTAVYYCAKTSRYYWYGYDYWGQGTQVTVSS,high polyreactivity
14,QVQLVESGGGLVQAGGSLRLSCAASGRISASYAMGWYRQAPGKERELVAAITGSGGSTYYADSVKGRFTISRDNAKNTVYVQMNSLNPEDTAVYYCAADPGWAWWVLNYWVQGTQVTVSS,low polyreactivity
15,QVKLVESGGGLVQAGGSLRLSCAASGFILGYYAMGWYRQAPGKERELVASISRRGGSTYYADSVKGRFTISRDNAKNTVYLQMNSLKPEDTAVYYCAASGYGRYPPYEYWGQGTQVTVSS,high polyreactivity
16,QVQLVESGGGLVQAGGSLRLICAASGSTSQINAMGWYRQAPGKERELVAAINSGDITNYADSVKGRFTISRDNAKNTVYLQMNSLKPEDTAVYYCNADILVVKFDYWGQGTQVTVSS,low polyreactivity
17,QDQLVESGGGLVQAGGSLRLSCAASGITFVYYAMGWYRQAPGKERELVAAITGSGDSTYYADSVKGRFTISRDNAKNTVYLQMNSLKPEDTAVYYCAAEAWWYGGFGYWGQGTQVTVSS,high polyreactivity
18,QVQLVESGGGLVQAGGSLRLSCAASGSISLHYAMGWYRQAPGKERELVAAISKSGGSTYYADSVKGRFTISRDNAKNTVYLQMNSLKPEDTAVYYCAADTYRSFGYNYWGQGTQVTVSS,high polyreactivity
19,QVQLVESGGGLVQAGGSLRLSCAASGRTFYTYAMGWYRPAPGKERELVASISSGGNTNYADSVKGRFTISRDNAKNTVYLQMNSLKPEDTAVYYCAASYLKRRGYWGQGTQVTVSS,low polyreactivity
20,QVQLVESGGGLVQAGGSLRLSCAASGIIFRDNDMGWYRQAPGKERELVASISDSGGSTYYADSVKGRFTISRDNAKNTVYLQMNSLKPEDTAVYYCAAPYLSLYWYDYWGQGTQVTVSS,low polyreactivity
21,QVQLVESGGGLVQAGGSLRLSCAASGRIFAVNAMGWYRQAPGTERELVAAITNVASTKYADSVKGRFTISRDNAKNTVYLQMNSLKQEDTAVYYCNADLSQEDWKMDYWGQGTQVTVSS,low polyreactivity

row,Sequence,polyreactivity (PSR sort gate)
1,QVQLVESGGGLVQAGGSLRLSCAASGSILQSYAMGWSRQAPGKERELGAALSGSGGSTYYADSVKGRFTISRDNAKNTVYLQMNSLKPEDTAVYYCAKGPLYRTSRGEFGYWGQGTQVTVSS,low polyreactivity
2,QVQLVESGGGLVQAGGSLRLSCAASGRIFPYYTMGWYRQAPGKERELVATITTGGSTNYADSVKGRFTISRDNAENTVYLQMNSLKPEDTAVYYCNNDGVVVGRFTGPQEYDYWGQGTQVTVSS,low polyreactivity
3,QVQLQERGGGLVQAGGSLRLSCAASGIIYADGFMGLYRQAPGKEREFVATITGGGTSNYADSVKGRFTISRDNAKNTVYLQMNSLKPEDTAVYYCAVYFAWTIGFTYLGQGTQVTVSS,high polyreactivity
4,QVQLVESGAGLVQAGGSLRLCCAASGFIFYLNTMGWYRQAPGKERELVAGITWRGGTTYYADSVKGRFTISRDNAKNSVYLQMNSLKPEDTAVYYCAARRYSRPYSYGFYYWGQGTLVTVSS,high polyreactivity
5,QVQLVESGGGLVQAGGSLRLSWAASGRIIYGYAMGWYRQAPGKERELVAAITATYYADSVKGRFTISRDNAKNTVYLQMNSLKPEDTAVYYCNAYLYPKQPLSPPDPTFEGGYWGQGTQVTVSS,low polyreactivity
6,QVQLVESVGGLVQAGGSLRLSCAASGFTFTPYGMGWYRQAPGKERELVAAITWNGGRTYYADSVKGRFTISRDNAKNTVYLQMNSLKPEDTAVYYCAAVAWSWQKRGYWGQGTQVTVSS,high polyreactivity
7,QVQHVESCGGLVQAGGSLRLSCAASGYIFSIYAMGWSRQAPGKERELVAAITWSGATTYYADSVKGRFSISRDNAKNTVYLQMNSLKPEDTAVYYCNADYWHYYEDYESWGQGTQVTVSS,low polyreactivity
8,QVQLVESGGGLVQAGGSHRLSCSASGSIIFYYAMGWDRQAPGKEREFVAAITRSGVRTYYADSVKGRFTISRDNAKNTVYLQMNSLKPEDTAVYYCNADYGFYRPVLMGYWGQGTQVTVSS,low polyreactivity
9,QVQLVESGGGLVQAGGSLRLSCAASGFIIVRNALGWYRQAPGKERELVAAMRWSGGSTYYADSEKGRFTISRDNSKNTDYLQMNSLKPEDTAVYYCAARLWLKVQYLRFFVYDYWGQGTQVTVSS,low polyreactivity
10,QVQLVESGGGLVQAGGSLRLSCASSGRIFGSYAMGWYRQAPGKERELVAGISKSGTSTYYADSVKGRFTISRDNAKNTVYLLMNSLKPEDTADYYCAKRFDSTKAKYYYWGQGTQGTVSS,high polyreactivity
11,QVQLVESGGGIVQAGGSLRLSCAASGLISRVYAMGWSRQAPGKEWELVAAISSGGSTNYADSVKGRFTISRDNAKNTVYLQMNSLKPEETAGYYCAARGRRTGGHYNYWGQGTQETVSS,low polyreactivity
12,QVQLVESGGGLVQAGGSLRLSCAASGNTFSSYAMGWYRQAPGKVRELVAAISRRGGSTYYADSVKRRFTISRDHAKTTVYLQMNSLKPEDTAVYYCAADGTGFRSLRYDYWGQGTQVTVSS,high polyreactivity
13,QVQLVESGGGLVQAGGSLRLSCAATGINFRAYAMGWYRQAPGKERELVAAISSGGNTNYADSVKGRFTISRDNAKNTVYLQMNSLKPEDTAVYYCAAGYFWGRIKYYYWGQGTQVTVSS,high polyreactivity
14,QVQLVESGGGLVQAGGSLRLSCAASGLIFRVNAMGWYRQAPGKERELVASISVSGGSTYYADSVKGRFTISRDNAKNTVYLQMNSLKPEDTAVYYCAASQYHKGYLFSYPYEYDYWGQGTQVTVSS,low polyreactivity
15,QVQLVQSGGGLVQAGGSLRLSCAASGFIIWDNAMGCYRQAPGKERELVAAISDSGGDTYYADSVKGRFTISRDNAKNTVYLQMNSLKPEDTAVYYCASDVELWVFRGDQYDYWGQGTQVTVSS,low polyreactivity
16,QVQLVESGGGLVQAGGSLRLSCAASGRTLTYNVMGWYRPAPGKERELVASISATGGSTYYADSVKGRFTISRDNAKNTVYLQMNSLKPEDTAVYSCAARGYRYHYATRYDYWGQATQVTVSS,high polyreactivity
17,QVQLVESGGGLVQAGGRLRLSCAASGSIFFGNVIGWYRQAPGKEREWVAAINTDGRTYYADSVKGRFTISRDNAKNTVYLQMNSLKPEDTAVYYCAKAVWWSLPAQKSYLYYYWGQGTQVTVSS,high polyreactivity
18,QVQLVESGGGLVQAGGSHRLSCAASGSTFWGYTMRWYRQAPGKERELVAAITRSSGRTYYADSVKGRFTISRDNAKITVYLQMNSLKPEETAVYYCNAAAVGRRTWSPYDYWGQGTQVTVSS,high polyreactivity
19,QVQLVESGGGLVQAGGSIRLSCADSGIIFQANAMGWYRQAPRKERELVAGISRGSSTNYADSVKGRFTISLDNAKNTVYLQMNSLKPEDTAVYYCSAGFYYRPFYGSSHSYGYWGQGTQVTVSS,low polyreactivity
20,QVQLVESVGGLVQAGGSLRLSCAASGYIFGYNAMGWYRQAPGKERELVAAISRSAGRTYYADSVKGRFTISRDNAKNTVYLQMNSLKPEDTAVYYCAAQSYWLGYEYWGQGTQVTVSS,high polyreactivity
